Values quoted from earlier work as cited in article PMC12005733.

Biological target: Calbindin D9k C-terminal split part C-terminal half (Bos taurus) (UniProt P02633)

## Calbindin D9k N-terminal split part N-terminal half (from UniProt P02633)
  Kd: 3 pM
